# Laboratory results as given in doi:10.1101/2020.11.13.381350 (bioRxiv, 2020).
# Molecular target: the molecule itself
# Experiment: SEC
protein,measurement,value
EGFP-WT-mVP40 (natural protein) MASSSNYNTYMQYLNPPPYADHGANQLIPADQLSNQQGITPNYVGDLNLDDQFKGNVCHAFTLEAIIDISAYNERTVKGVPAWLPLGIMSNFEYPLAHTVAALLTGSYTITQFTHNGQKFVRVNRLGTGIPAHPLRMLREGNQAFIQNMVIPRNFSTNQFTYNLTNLVLSVQKLPDDAWRPSKDKLIGNTMHPAVSIHPNLPPIVLPTVKKQAYRQHKNPNNGPLLAISGILHQLRVEKVPEKTSLFRISLPADMFSVKEGMMKKRGENSPVVYFQAPENFPLNGFNNRQVVLAYANPTLSAV,stoichiometry N,6
